Test results taken from paper PMC10411877.

T1: GST-MAC3A (Arabidopsis thaliana (Col), UniProt Q94BR4 1-523)
T1 sequence: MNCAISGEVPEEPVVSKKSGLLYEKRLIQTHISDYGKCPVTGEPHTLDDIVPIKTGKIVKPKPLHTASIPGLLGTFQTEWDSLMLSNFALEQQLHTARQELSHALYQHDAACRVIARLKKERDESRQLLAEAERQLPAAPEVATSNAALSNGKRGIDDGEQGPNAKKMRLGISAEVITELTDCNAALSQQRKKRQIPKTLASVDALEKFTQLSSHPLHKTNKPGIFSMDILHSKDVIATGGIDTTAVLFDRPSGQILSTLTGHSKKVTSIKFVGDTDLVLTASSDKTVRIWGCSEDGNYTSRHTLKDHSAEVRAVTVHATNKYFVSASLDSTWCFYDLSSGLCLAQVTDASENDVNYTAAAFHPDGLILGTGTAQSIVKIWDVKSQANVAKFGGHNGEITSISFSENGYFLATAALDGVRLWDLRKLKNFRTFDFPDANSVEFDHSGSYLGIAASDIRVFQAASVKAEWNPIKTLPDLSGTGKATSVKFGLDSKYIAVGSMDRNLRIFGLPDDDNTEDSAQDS

B1: pYUC8biotin (dsDNA)
DNA 1: CCTCTCCACGTGGCTTCCATTC
DNA 2: GAATGGAAGCCACGTGGAGAGG
B2: pIAA19biotin (dsDNA)
DNA 1: AATGACTCCACGTGTCGATATTG
DNA 2: CAATATCGACACGTGGAGTCATT
B3: cold pYUC8 (dsDNA)
DNA 1: CCTCTCCACGTGGCTTCCATTC
DNA 2: GAATGGAAGCCACGTGGAGAGG
B4: cold pIAA19 (dsDNA)
DNA 1: ATCTGTTCCCTTAACCACCTTGT
DNA 2: ACAAGGTGGTTAAGGGAACAGAT

Experiments:
GST-MAC3A [1] = molecular target: T1, GST-MAC3A; assay: FLISA
GST-MAC3A [2] = molecular target: T1, GST-MAC3A; assay: competition FLISA
GST-MAC3A [3] = molecular target: T1, GST-MAC3A; assay: competition FLISA; remark: listed apart in the source

Binder | binding result (GST-MAC3A [1]) | also measured
B1 | binds | 
B2 | binds | 
B3 |  | binding result (GST-MAC3A [2]): binds
B4 |  | binding result (GST-MAC3A [3]): binds
